From patent publication US20260055154A1 (CHENGDU AODA BIOTECHNOLOGY, published 2026)
Starred links: 1 amine or outer side, 2 acyl side, 3 side chain; linkers in the order of their positions; H or OH if unused. Non-standard residues stand in square brackets, D forms with d. Groups on a side chain read outwards from the residue. No end group written: not given here. *: point of attachment. C20 diacid = O=C(O)CCCCCCCCCCCCCCCCCCC(=O)*; γGlu = O=C(O)[C@H](CCC(=O)[*:2])N[*:1]; AEEA = NCCOCCOCC(=O)O; Aib = CC(C)(N)C(=O)O

Key:
[1] = biological target: glucagon-like peptide-1 (GLP-1) receptor; test: cell-based or functional assay
[2] = biological target: glucagon (Gcg) receptor; test: cell-based or functional assay

Binder | Relative biological activity (cAMP chemiluminescence, RLU, CHO-K1 cells stably expressing GLP-1R; relative to OXM3) [1] | Biological activity (%) (cAMP chemiluminescence, RLU, CHO-K1 cells stably expressing GcgR; relative to OXM3) [2]
H[Aib]QGTFTSDYSKYLDEKKAK([Gly-Gly-Glu-Gly-Glu-Gly-γGlu-C20 diacid])EFVEWLLEGGPSSGAPPPS-NH2 [Compound 4] | 116% | 49.6%
H[Aib]QGTFTSDYSKYLDEKKAK([PEG5CH2CO-γGlu-C20 diacid])EFVEWLLEGGPSSGAPPPS-NH2 [Compound 2] | 260% | 86.9%
H[Aib]QGTFTSDYSKYLDEKKAKEFVEWLLEGGPSSGAPPPS-NH2 (not fully specified (residue 20)) [Compound 3] | 158% | 94.2%
H[Aib]QGTFTSDYSKYLDEKKAK([AEEA-AEEA-γGlu-C20 diacid])EFVEWLLEGGPSSGAPPPS-NH2 [Compound 1] | 188% | 90.5%
